# Experimental data taken from US7211434B2, “Primitive neural stem cells and method for differentiation of stem cells to neural cells” (priority 2000, dated 2007).
# Experiments:
# Assay type in all cases: cell-based, mouse
# [1] = system: ES cells; test: Primary neural sphere colony formation from ES cells in serum-free low-density culture, 7 days; details: for primary colony formation, factor alone: ES cells at relatively low cell densities, serum-free, 7 days in vitro
# Description: For passaging ES cells, cultures were disaggregated with 0.05% trypsin dissolved in Tris-saline/EDTA for 5–10 minutes, mechanically dissociated, centrifuged and resuspended in culture medium.
# Passaged ES cells were washed (2 times), centrifuged and resuspended in chemically defined serum-free media (Reynolds et al., 1992; Reynolds & Weiss, 1996) composed of a 1:1 mixture of Dulbecco's modified Eagle's medium (DMEM GIBCO) and F-12 nutrient (GIBCO) including 0.6% glucose (Sigma), 2 mM glutamine (GIBCO), 3 mM sodium bicarbonate (Sigma), and 5 mM HEPFS buffer (Sigma). A defined hormone and salt mixture (Sigma) that included insulin (25 (g/ml), transferrin (100 (g/ml), progestrone (20 nM), putrescine (60 (M), and selenium chloride (30 nM) was used instead of serum. ES cells were plated at various cell densities in 24-well culture plates (Nunclon) in the presence of either LIF (1000 U/ml), LIF+FGF2 (10 ng/ml; Upstate Biotech or Sigma) and 2 (g/ml heparin (Sigma), or in the absence of any exogenous growth factors. For short term (4–24 hours) neural differentiation, ES cells were plated in identical culture conditions in 24-well culture plates (Nunclon) that were precoated with poly-L-ornithine (15 μg/ml, Gibco).
# Limiting dilution analysis was performed as previously described (Bellows and Aubin, 1989; Tropepe et al., 1999). ES cells were plated in 24-well plates containing LIF (1000 U/ml). Cell numbers were adjusted to give a starting concentration of 5000 cells/ml from which serial dilutions were made. Final cell dilutions ranged from 1000 cells per well to 1 cell per well in 0.5 ml aliquots. Cultures were left undisturbed for 7 days after which time the fraction of wells not containing sphere colonies for each cell plating density was calculated and those points were plotted against the number of cells plated per well. The number of cells required to form one sphere colony, which reflected the proportion of neural stem cells in the entire population, was then determined from the point at which the regression line crossed the 0.37 level (37%). That is […], where F0 is the fraction of wells without sphere colonies and x is the mean number of cells per well. Based on a Poisson distribution of cells, F0=0.37 corresponds to the dilution at which there is one neural stem cell per well. The linear relationship observed between the cell density and the number of sphere colonies generated (regression coefficient R^2=0.99) can be accounted for by the clonal proliferation of a single rare population of cells.
# Neuro2a (a murine neuroblastoma cell line) cells were seeded at 1×10^6 cells per 100 mm petri dish and transiently transfected with 10 μg of plasmid DNA by means of LipofectAMINE (Gibco) according to the manufacturer's instructions. After 6 hours, the culture media was changed to 10 ml of DMEM+10% FBS (Gibco). Twenty-four hours after transfection, culture media was changed to […] of serum-free media. Seventy-two hours after transfection, cell supernatant was collected and centrifuged to remove cellular debris. Supernatant media was aliquoted and stored at −70° C. […] Thus data from the 20% (v/v) experiments were used for the analysis. The plasmids pCS-V2 (gift from Dr. R. Moon) Hoppler et al., 1996) and pCS-cer-I (a gift from Dr. E. De Robertis) (Belo et al., 1997) were used.
# [2] = system: ES-derived neural sphere colony cells; test: Subcloning of single ES-derived sphere colonies (secondary colony formation, self-renewal); details: subcloned single primary colonies; factor alone
# Description: Self-renewal of primary colony-formin) ES cells was assessed as previously described (Tropepe et al., 1999). Single sphere colonies were isolated, mechanically dissociated into a single cell suspension in 0.2 ml of serum-free media containing various combinations of LIF (1000 U/ml), […] (10 ng/ml), heparin (2 (g/ml), EGF (20 ng/ml; Upstate Biotech) or B27 supplement (1X) and cultured in 96-well (Nunclon) plates. Secondary sphere colonies were quantified after 7–10 days. A similar procedure was used for repeated passaging experiments. Cell viability after a 7-day culture period (sphere colony assay) or after 4–24 hours (short-term ES differentiation assay) was determined using trypan blue exclusion (1:2 dilution of 0.4% trypan blue; Gibco).
# [3] = system: ES derived neural colonies; test: RT-PCR gene expression in ES-derived neural colonies; details: mCer-1 enriched media versus control media; data not shown
# Description: Total RNA was isolated using the RNeasy extraction kit (Qiagen) and 1 μg of total RNA was used to synthesize cDNA with oligo-d(T)12-18 primers and MuMLV reverse transcriptase (Superscript II; Boehringer-Mannheim) at 42° C. for 1 hour. The PCR mixture (20 μl) consisted of 1 μl cDNA, 16 pmol 5 ″ primer, 16 pmol 3′ primer, specific for the gene in question 0.2 mM dNTP, 2 μl PCR reaction buffer and 0.8 U of Taq polymerase (Promega). cDNA was amplified in a thermal cycler (Perkin-Elmer) For all primer pairs denaturation for 30 sec at 94° C., annealing for 30 sec and extension at 72° C. was used. The sense and antisense primers, Mg^2 concentration, annealing temperature, extension time and number of PCR cycles were used for the following genes. Emx2: sense 5′-[…]-3′ (SEQ ID. No. 1), antisense 5′ […]-3′(SEQ. ID. No. 2), 1.65 mM Mg^2+, 56° C., 40 sec, 40 cycles. HoxB1: sense 5′-CCGGACCTTCGACTGGATG-3′(SEQ. ID. No. 3). antisense 5′-GGTCAGAGGCATCTCCAGC-3′(SEQ. ID. No. 4), 1.35 mM Mg^2+, 58° C., 40 sec, 40 cycles. Otx1: sense 5′-[…]-3′(SEQ. ID. No. 5). antisense 5′-[…]-3′(SEQ. ID. No. 6), 1.65 mM Mg^2+, 58° C., 40 sec, 40 cycles. Six3: sense 5′-[…]-3′(SEQ. ID. No. 7), antisense 5′-[…]-3′(SEQ. ID. No. 8), 1.35 mM Mg^2+, 56° C., 40 sec, 40 cycles. Brechyury: sense 5′-[…]-3′(SEQ. ID. No. 9), antisense 5′-[…]-3′(SEQ. ID. No. 10), 1.65 mM Mg^2+, 56° C., 1 min. 35 cycles. […]
molecule,measurement,setting,value
BMP4: Human recombinant BMP4 protein provided by Genetics Institute Inc. (protein) SPKHHPQRSRKKNKNCRRHSLYVDFSDVGWNDWIVAPPGYQAFYCHGDCPFPLADHLNSTNHAIVQTLVNSVNSSIPKACCVPTELSAISMLYLDEYDKVVLKNYQEMVVEGCGCR,further effect on number of sphere colonies at higher BMP4 concentration,"[1]; 5-fold increase in BMP4 concentration, LIF and FGF2",did not further significantly attenuate the number of sphere colonies generated
same,decrease in the number of sphere colonies generated,"[1]; BMP4 5 ng/ml, ES cell cultures containing LIF and FGF2, 20 cells/ul, 7 days",greater than 50%
"CNTT: another member of the cytokine family of signaling molecules to which LIF belongs (protein, UniProt P26441 1-200, looked up) Ciliary neurotrophic factor: MAFTEHSPLTPHRRDLCSRSIWLARKIRSDLTALTESYVKHQGLNKNINLDSADGMPVASTDQWSELTEAERLQENLQAYRTFHVLLARLLEDQQVHFTPTEGDFHQAIHTLLLQVAAFAYQIEELMILLEYKIPRNEADGMPINVGDGGLFEKKLWGLKVLQELSQWTVRSIHDLRFISSHQTGIPARGSHYIANNKKM","primary colony formation, factor alone",[1],unable to substitute as a colony-promoting factor
Noggin: BMP protein antagonist; human recombinant Noggin protein provided by Regeneron Pharmaceuticals Inc. (protein) QHYLHIRPAPSDNLPLVDLIEHPDPIFDPKEKDLNETLLRSLLGGHYDPGFMATSPPEDRPGGGGGAAGGAEDLAELDQLLRQRPSGAMPSEIKGLEFSEGLAQGKKQRLSKKLRRKLQMWLWSQTFCPVLYAWNDLGSRFWPRYVKVGSCFSKRSCSVPEGMVCKPSKSVHLTVLRWRCQRRGGQRCGWIPIQYPIISECKCSC,increase in the number of sphere colonies generated,"[1]; Noggin 100 μg/ml, primary ES cell cultures with LIF+FGF2, 7 days",50%
same,further effect on number of sphere colonies with rising Noggin concentration,[1]; Noggin from 10 μg/ml to 100 μg/ml,no additional increase in the numbers of sphere colonies generated
"FGF2: fibroblast growth factor family growth factor, 10 ng/ml with heparin (protein) PALPEDGGAAFPPGHFKDPKRLYCKNGGFFLRIHPDGRVDGVREKSDPHVKLQLQAEERGVVSIKGVCANRYLAMKEDGRLLASKCVTEECFFFERLESNNYNTYRSRKYSSWYVALKRTGQYKLGSKTGPGQKAILFLPMSAKS",secondary neural stem cell colony formation,[2],dependent upon the presence of exogenous FGF2
same,"primary colony formation, factor alone",[1],no cell colonies were generated
same,"primary colony formation, factor combined with LIF versus LIF alone",[1]; combined with LIF,non-significant trend toward facilitating LIF-dependent colony formation
mCer-1: mouse Cerberus-like protein in supernatant from transiently transfected Neuro2a cells (protein) DLCVDGCQSQGSLSFPLLERGRRDLHVANHEEAEDKPDLFVAVPHLMGTSLAGEGQRQRGKMLSRLGRFWKKPETEFYPPRDVESDHVSSGMQAVTQPADGRKVERSPLQEEAKRFWHRFMFRKGPAFQGVILPIKSHEVHWETCRTVPFNQTIAHEDCQKVVVQNNLCFGKCSSIRFPGEGADAHSFCSHCSPTKFTTVHLMLNCTSPTPVVKMVMQVEECQCMVKTERGEERLLLAGSQGSFIPGLPASKTNP,Otx-1 expression in ES derived neural colonies,[3],express Otx-1
same,increase in the numbers of primary neural stem cell colonies,"[1]; 20% (v/v) mCer-1 supernatant in 0.5 ml serum-free media+LIF, versus backbone vector supernatant",~50%
